Target: HAUSP^62–205 (HAUSP TRAF domain) (UniProt Q93009)
Assay: ITC

HAUSP^62–205 (HAUSP TRAF domain), sequence (Q93009 62-205): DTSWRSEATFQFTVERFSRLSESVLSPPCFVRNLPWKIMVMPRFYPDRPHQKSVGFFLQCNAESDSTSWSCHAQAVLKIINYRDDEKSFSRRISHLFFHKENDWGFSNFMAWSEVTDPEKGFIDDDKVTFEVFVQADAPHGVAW

p53^350–364 peptide (from UniProt P04637 350-364)
Ka: 65000 M⁻¹

p53^355–369 peptide (from UniProt P04637 355-369)
Ka: 67000 M⁻¹
